Numbering of substitutions follows the chain as printed.
B1: Dealocase-1 (protein)
chain: KPRVLVLTGAGISAESGIRTFRAADGLWEEHRVEDVSTPEGFDRDPELVQAFWNAWRRQLQQPEIQPNAAHLALAKLQDALGDRFLLVTQNVDNLHERAGNTNVIHMHGELLKVRCSQSGQVLDWTGDVTPEDKCHCCQFPAPLRPHVVWFGEMPLGMDEIYMALSMADIFIAIGTSGHVYPAAGFVHEAKLHGAHTVELNLEPSQVGNEFAEKYYGPASQVVPEFVEKLLKGLKAGSIA
B2: Decrotonylase-1 (protein)
chain: B1 chain with S37R, W53G, W56T, V92R, V148L
B3: Debocylase-1 (protein)
chain: B1 chain with S37A, W53Y, W56R, V148L
B4: Dealocase-3 (protein)
chain: B1 chain with S37A, W53Y, W56R, V92S, V148L
B5: Dealocase-2 (protein)
chain: B1 chain with S37G, W53Y, W56G

How the values were obtained:
[1] = biological target: Dual luciferase reporter (DLR) with N(ε)-crotonyl-lysine at K529 of the Firefly enzyme
[2] = biological target: Dual luciferase reporter (DLR) with N(ε)-tert.-butyl-oxycarbonyl-lysine at K529 of the Firefly enzyme
[3] = biological target: Dual luciferase reporter (DLR) with N(ε)-acetyl-lysine at K529 of the Firefly enzyme
[4] = biological target: Dual luciferase reporter (DLR) with N(ε)-allyl-oxycarbonyl-lysine at K529 of the Firefly enzyme
Chain of Dual luciferase reporter (DLR) with N(ε)-allyl-oxycarbonyl-lysine at K529 of the Firefly enzyme (chain, as listed by the source): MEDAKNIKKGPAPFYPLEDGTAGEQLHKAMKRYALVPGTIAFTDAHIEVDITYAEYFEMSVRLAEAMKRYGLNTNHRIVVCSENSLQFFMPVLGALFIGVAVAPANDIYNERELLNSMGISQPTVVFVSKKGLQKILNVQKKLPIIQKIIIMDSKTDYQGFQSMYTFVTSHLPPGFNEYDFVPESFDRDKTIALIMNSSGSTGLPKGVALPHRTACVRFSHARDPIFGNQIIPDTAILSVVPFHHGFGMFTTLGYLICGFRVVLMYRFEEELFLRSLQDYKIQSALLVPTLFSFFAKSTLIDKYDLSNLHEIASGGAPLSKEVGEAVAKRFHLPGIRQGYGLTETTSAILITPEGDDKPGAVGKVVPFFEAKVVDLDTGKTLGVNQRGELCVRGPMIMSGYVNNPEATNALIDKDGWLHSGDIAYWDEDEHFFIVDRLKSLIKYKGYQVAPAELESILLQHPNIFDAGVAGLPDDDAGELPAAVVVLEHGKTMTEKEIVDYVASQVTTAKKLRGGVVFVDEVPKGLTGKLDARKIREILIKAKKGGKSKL

Chain of Dual luciferase reporter (DLR) with N(ε)-tert.-butyl-oxycarbonyl-lysine at K529 of the Firefly enzyme (chain, as listed by the source): as above
Chain of Dual luciferase reporter (DLR) with N(ε)-acetyl-lysine at K529 of the Firefly enzyme (chain, as listed by the source): as above
Chain of Dual luciferase reporter (DLR) with N(ε)-crotonyl-lysine at K529 of the Firefly enzyme (chain, as listed by the source): as above

Row | Protein | DLR activity [rel. to wild-type] (rel. to wild-type) [1] | DLR activity [rel. to wild-type] (rel. to wild-type) [2] | DLR activity [rel. to wild-type] (rel. to wild-type) [3] | DLR activity [rel. to wild-type] (rel. to wild-type) [4]
1 | B1 | 5.73 | 2.88 | 0.49 | 10.8
2 | B2 | 0.1 | 0.04 | 0 | 0.02
3 | B3 | 2.9 | 8.65 | 1.25 | 8.35
4 | B4 | 1 | 0.65 | 0.35 | 6
5 | B5 | 2.11 | 0.77 | 1.19 | 10.2

Source: patent US20200240995
